{"source": "patent US20260108606A1", "about": "“TREATMENT OF AUTOIMMUNE DISEASES HAVING A PATHOGENIC T CELL STATE” (THE BRIGHAM AND WOMEN'S HOSPITAL, INC., priority 2023, published 2026)", "molecules": {"B1": {"name": "IL-23: a cytokine critical for inducing pathogenic Th17 cells (protein, UniProt Q9NPF7 20-189; P29460 23-328, looked up)", "Interleukin-23 subunit alpha": "RAVPGGSSPAWTQCQQLSQKLCTLAWSAHPLVGHMDLREEGDEETTNDVPHIQCGDGCDPQGLRDNSQFCLQRIHQGLIFYEKLLGSDIFTGEPSLLPDSPVGQLHASLLGLSQLLQPEGHHWETQQIPSLSPSQPWQRLLLRFKILRSLQAFVAVAARVFAHGAATLSP", "Interleukin-12 subunit beta": "IWELKKDVYVVELDWYPDAPGEMVVLTCDTPEEDGITWTLDQSSEVLGSGKTLTIQVKEFGDAGQYTCHKGGEVLSHSLLLLHKKEDGIWSTDILKDQKEPKNKTFLRCEAKNYSGRFTCWWLTTISTDLTFSVKSSRGSSDPQGVTCGAATLSAERVRGDNKEYEYSVECQEDSACPAAEESLPIEVMVDAVHKLKYENYTSSFFIRDIIKPDPPKNLQLKPLKNSRQVEVSWEYPDTWSTPHSYFSLTFCVQVQGKSKREKKDRVFTDKTSATVICRKNASISVRAQDRYYSSSWSEWASVPCS"}}, "assay_type_in_all_cases": "cell-based, mouse", "key": {"Tcf7 locus": {"test_system": "Tcf7 locus", "experiment": "Tcf7 locus reporter (Tcf7-GFP) activity in Th17 cells", "conditions": "CD4 T cells of Tcf7 locus reporter strain, IL-1β+IL-6 with or without IL-23 for 3 days, then 2 days of rest (FIG. 8C)", "experimental": "(§1) Single-cell suspension were prepared from spleen and lymph nodes, and CD4 T cells isolated using the anti-CD4 microbeads (Miltenyi, catalogue #130-117-043). Subsequently, naïve CD4 T cells (CD62L^+ CD44^− CD25^−) were enriched through fluorescence activated cell sorting (FACS) performed on a BD FACSAria Ilu. Naïve CD4 T cells were activated for 3 days with 1 ug/ml of plate-bound anti-CD3 (BioXcell, BP0001) and anti-CD28 (BioXcell, BE0015), plus the addition of 20 ng/ml of IL-1B (R&D Systems), 25 ng/ml of IL-6 (R&D Systems), 20 ng/ml of IL-23 (R&D Systems), 20 ug/ml of anti-IFNγ (BioXcell, BE0055) and 20 μg/ml of anti-IL4 (BioXcell, BE0045) for pathogenic Th17; 2 ng/ml of TGFβ1, 25 ng/ml of IL-6, 20 μg/ml of anti-IFN and 20 μg/ml of anti-IL4 for non-pathogenic Th17. Cells were then rested in un-coated plates in absence of anti-CD3/anti-CD28 stimulation for 2 days. For some experiments, cells were re-stimulated with 1 ug/ml of anti-CD3/anti-CD28 for 1-2 days.\n(§2) Single-cell suspensions were firstly stained to discriminate live cells with UV Zombie (Biolegend) in PBS, and then in FACS buffer (2% bovine serum albumin in PBS) with antibodies for surface antigens. […] Fully stained samples were read either at a BD LSRFortessa or BD FACSymphony. The data were analyzed with FlowJo software (TreeStar) and GraphPad Prism software (GraphPad)."}, "TCF1": {"test_system": "TCF1", "experiment": "Th17 in vitro differentiation, TCF1 and RORγt expression by flow cytometry", "experimental": "as §1, §2"}, "CD4+ T cells": {"test_system": "CD4+ T cells", "experiment": "Glycolytic rate assay using Seahorse (ECAR)", "conditions": "WT cells differentiated with IL-1β+IL-6 with or without IL-23 (FIG. 12G)", "text": "FIG. 12A-12K—TCF1 deficiency obviates the need for IL-23 for Th17 pathogenicity. (FIG. 12A) Schematic view of in vitro differentiation with IL-1b and IL-6 for adoptive transfer experiments. (FIG. 12B-12D) CNS-infiltrating immune cells (FIG. 12B-12C) or immune cells from draining lymph nodes (dLN) (FIG. 12D) were harvested from mice at peak of disease (EAE score 1-5) and analyzed by flow cytometry. (FIG. 12B) Summary data of the frequency of Foxp3+ cells within the 2D2 cell population infiltrating the CNS (WT n=11; KO n=12). (FIG. 12C) Summary data of cytokine production by host CD4+ T cells infiltrating the CNS (WT n=10; KO n=12). (FIG. 12D) Summary data of the frequency of SLAMF6+ and CXCR6+ cells within 2D2+ cells in the dLN of recipients of 2D2 TCF1 WT (n=8) and TCF1cKO (n=10) cells. […] (FIG. 12I-12J) CNS-infiltrating 2D2 cells were harvested and FACS-sorted from mice at peak of disease (EAE score 1-5) and analyzed by confocal microscopy. […]\nTh17 pathogenicity is driven by IL-23 and has been associated with increased glycolytic activity and lipid metabolism, which in turn, supply crucial sterol ligands to boost RORγt transcriptional activity. […] The disclosure further assessed the intra-cellular lipid content of 2D2 TCF1 WT and 2D2 TCF1cKO cells isolated from the CNS of p19^−/− mice."}}}
{"molecule": "B1", "values": [{"measurement": "Tcf7 locus reporter activity", "setting": "Tcf7 locus", "value": "significantly decreased"}, {"measurement": "TCF1 protein expression", "setting": "TCF1; naïve CD4+ T cells differentiated with IL-1β and IL-6 for 2 days, then increasing doses of IL-23, dose-dependent (FIG. 1F)", "value": "decreased significantly"}, {"measurement": "proportion of TCF1lo RORγt hi cells", "setting": "TCF1; pTh17 differentiated for 3 days, then fresh IL-23 added in the culture media (FIG. 8D)", "value": "increased proportion"}, {"measurement": "glycolysis (extracellular acidification rate; ECAR)", "setting": "CD4+ T cells", "value": "increased glycolysis"}]}
